Target: IL2 receptors (on the HEK IL-2 reporter cell line) (human) (UniProt P01589)
Test: cell-based or functional assay

IL2 receptors (on the HEK IL-2 reporter cell line) (human), sequence (P01589 22-272, chain 1 of 3): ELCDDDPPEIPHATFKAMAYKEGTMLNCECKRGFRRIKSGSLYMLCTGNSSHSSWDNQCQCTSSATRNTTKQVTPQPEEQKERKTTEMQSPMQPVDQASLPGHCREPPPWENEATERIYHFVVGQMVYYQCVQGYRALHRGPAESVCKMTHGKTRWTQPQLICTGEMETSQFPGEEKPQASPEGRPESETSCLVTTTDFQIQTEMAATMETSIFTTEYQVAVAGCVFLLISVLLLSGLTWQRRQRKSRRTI
IL2 receptors (on the HEK IL-2 reporter cell line) (human), sequence (P14784 27-551, chain 2 of 3, further chain): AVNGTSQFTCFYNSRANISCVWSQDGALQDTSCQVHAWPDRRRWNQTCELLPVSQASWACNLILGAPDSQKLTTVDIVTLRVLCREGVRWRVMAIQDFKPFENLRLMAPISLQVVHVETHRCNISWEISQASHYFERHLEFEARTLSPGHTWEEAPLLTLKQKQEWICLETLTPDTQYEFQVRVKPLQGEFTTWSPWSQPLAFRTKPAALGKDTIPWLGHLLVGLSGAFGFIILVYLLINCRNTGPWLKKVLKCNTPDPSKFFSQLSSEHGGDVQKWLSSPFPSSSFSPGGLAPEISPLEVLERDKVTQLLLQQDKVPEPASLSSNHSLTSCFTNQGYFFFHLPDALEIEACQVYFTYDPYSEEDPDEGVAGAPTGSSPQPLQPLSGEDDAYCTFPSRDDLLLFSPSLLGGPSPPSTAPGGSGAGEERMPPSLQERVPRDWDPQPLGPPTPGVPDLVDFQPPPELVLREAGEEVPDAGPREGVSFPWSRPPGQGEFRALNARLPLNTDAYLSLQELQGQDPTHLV
IL2 receptors (on the HEK IL-2 reporter cell line) (human), sequence (P31785 23-369, chain 3 of 3, further chain): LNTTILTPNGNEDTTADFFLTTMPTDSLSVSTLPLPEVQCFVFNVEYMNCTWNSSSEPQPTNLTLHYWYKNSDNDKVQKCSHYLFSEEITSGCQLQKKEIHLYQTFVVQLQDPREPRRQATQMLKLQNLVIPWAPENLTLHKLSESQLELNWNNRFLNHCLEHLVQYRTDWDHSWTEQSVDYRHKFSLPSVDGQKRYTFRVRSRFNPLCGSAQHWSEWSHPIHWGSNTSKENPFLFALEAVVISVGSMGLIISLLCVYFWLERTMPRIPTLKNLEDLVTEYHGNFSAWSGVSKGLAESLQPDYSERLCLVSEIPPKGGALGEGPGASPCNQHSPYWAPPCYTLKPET

IL-2 EC50 (nM) (approx.); SEAP induction in the HEK IL-2 reporter cell line, OD | Substance
0.87 nM | Cas9-2xNLS-IL2(superkine) (from UniProt P60568 21-153)
0.34 nM | Cas9-2xNLS-mouse WT IL2 (from UniProt P04351 21-169)
0.037 nM | IL2(SK)-SpyTag (ligand)
0.0057 nM | recombinant mouse IL-2 (from UniProt P04351 21-169) (ligand)

Substance | IL-2 EC50 (nM) (approx.); SEAP induction in the HEK IL-2 reporter cell line, OD
SpyCatcher-Cas9(WT)-2xNLS:Spytag-IL2(SK) conjugate (from UniProt Q99ZW2 2-1368) | 0.0095 nM

From patent US20220010337A1
